Test results published in patent US20190062399A1.

Target: B7-1Ig (CD80-Ig fusion protein) (UniProt P33681)
Test: SPR kinetics (Biacore), 75-200 nM analyte over B7-1Ig chip (694 RU)

Protein A eluate of the HIC cleaning peak (mixture of all CTLA4-Ig species), sequence (chain): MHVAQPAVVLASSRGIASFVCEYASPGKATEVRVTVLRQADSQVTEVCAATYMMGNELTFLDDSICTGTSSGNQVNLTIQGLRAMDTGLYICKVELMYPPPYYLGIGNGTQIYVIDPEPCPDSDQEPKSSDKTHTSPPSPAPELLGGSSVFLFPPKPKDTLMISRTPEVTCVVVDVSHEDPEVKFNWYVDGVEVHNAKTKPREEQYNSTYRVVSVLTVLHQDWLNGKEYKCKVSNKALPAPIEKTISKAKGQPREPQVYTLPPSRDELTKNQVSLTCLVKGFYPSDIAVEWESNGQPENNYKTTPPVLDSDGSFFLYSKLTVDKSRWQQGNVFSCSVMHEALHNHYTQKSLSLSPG
UniProt P33681, sequence (P33681 35-242 limits assumed): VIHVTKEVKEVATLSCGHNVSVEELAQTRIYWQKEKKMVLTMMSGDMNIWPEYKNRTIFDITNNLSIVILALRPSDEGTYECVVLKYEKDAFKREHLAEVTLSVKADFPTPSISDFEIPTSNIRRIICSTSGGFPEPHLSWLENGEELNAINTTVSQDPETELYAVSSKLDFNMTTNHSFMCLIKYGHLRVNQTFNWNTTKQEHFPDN

Ka: 3.87e+07 M⁻¹
Kd: 25.8 nM
koff: 0.00973 s⁻¹
kon: 377000 M⁻¹ s⁻¹
Substance: Protein A eluate of the HIC cleaning peak (mixture of all CTLA4-Ig species)
